Data taken from PMC10958042.

B1: ATGL (PNPLA2, patatin-like phospholipase domain-containing protein 2), human, full length / perilipin-1, mouse (mPlin1) (parent)
chain 1: MFPREKTWNISFAGCGFLGVYYVGVASCLREHAPFLVANATHIYGASAGALTATALVTGVCLGEAGAKFIEVSKEARKRFLGPLHPSFNLVKIIRSFLLKVLPADSHEHASGRLGISLTRVSDGENVIISHFNSKDELIQANVCSGFIPVYCGLIPPSLQGVRYVDGGISDNLPLYELKNTITVSPFSGESDICPQDSSTNIHELRVTNTSIQFNLRNLYRLSKALFPPEPLVLREMCKQGYRDGLRFLQRNGLLNRPNPLLALPPARPHGPEDKDQAVESAQAEDYSQLPGEDHILEHLPARLNEALLEACVEPTDLLTTLSNMLPVRLATAMMVPYTLPLESALSFTIRLLEWLPDVPEDIRWMKEQTGSICQYLVMRAKRKLGRHLPSRLPEQVELRRVQSLPSVPLSCAAYREALPGWMRNNLSLGDALAKWEECQRQLLLGLFCTNVAFPPEALRMRAPADPAPAPADPASPQHQLAGPAPLLSTPAPEARPVIGALGL
chain 2: MSMNKGPTLLDGDLPEQENVLQRVLQLPVVSGTCECFQKTYNSTKEAHPLVASVCNAYEKGVQGASNLAAWSMEPVVRRLSTQFTAANELACRGLDHLEEKIPALQYPPEKIASELKGTISTRLRSARNSISVPIASTSDKVLGATLAGCELALGMAKETAEYAANTRVGRLASGGADLALGSIEKVVEFLLPPDKESAPSSGRQRTQKAPKAKPSLVRRVSTLANTLSRHTMQTTAWALKQGHSLAMWIPGVAPLSSLAQWGASAAMQVVSRRQSEVRVPWLHNLAASQDESHDDQTDTEGEETDDEEEEEESEAEENVLREVTALPNPRGLLGGVVHTVQNTLRNTISAVTWAPAAVLGTVGRILHLTPAQAVSSTKGRAMSLSDALKGVTDNVVDTVVHYVPLPRLSLMEPESEFRDIDNPSAEAERKGSGARPASPESTPRPGQPRGSLRSVRGLSAPSCPGLDDKTEASARPGFLAMPREKPARRVSDSFFRPSVMEPILGRAQYSQLRKKS
B2: ATGL (PNPLA2, patatin-like phospholipase domain-containing protein 2), human, full length / CIDEC (FSP27), human (parent)
chain 1: B1 chain 1
chain 2: MEYAMKSLSLLYPKSLSRHVSVRTSVVTQQLLSEPSPKAPRARPCRVSTADRSVRKGIMAYSLEDLLLKVRDTLMLADKPFFLVLEEDGTTVETEEYFQALAGDTVFMVLQKGQKWQPPSEQGTRHPLSLSHKPAKKIDVARVTFDLYKLNPQDFIGCLNVKATFYDTYSLSYDLHCCGAKRIMKEAFRWALFSMQATGHVLLGTSCYLQQLLDATEEGQPPKGKASSLIPTCLKILQ

Variants of: B1
Test: LUMIER: Protein A-ATGL variant and firefly luciferase-partner co-expressed in HEK293T, lysates immunoprecipitated on IgG-coated plates, co-precipitated partner measured as luciferase luminescence
Settings: with perilipin-1, mouse (mPlin1), transient co-transfection, IgG-coated LUMITRAC plates, 2 h at 4 °C, three PBS washes, Bright-Glo luciferase reagent, triplicates per assay, two …, parent: 0.26, not graded, scale: log2 fold change of co-immunoprecipitated luminescence relative to wild-type ATGL within each experiment

Row | Variant | screen value
1 | chain 1 E368A | -0.0883
2 | chain 1 I70K | -0.495
3 | chain 1 G66A | -0.406
4 | chain 1 K275A | -0.55
5 | chain 1 Q140K | -0.355
6 | chain 1 L159A | -0.915
7 | chain 1 P103K | -1.36
8 | chain 1 R351L | -0.000717
9 | chain 1 G153K | -0.674
10 | chain 1 A104E | -1.07
11 | chain 1 E125L | -0.268
12 | chain 1 P86K | -0.8
13 | chain 1 P258L | -0.67
14 | chain 1 G59L | -0.00134
15 | chain 1 V127L | -0.304
16 | chain 1 T41A | -0.0364
17 | chain 1 E314A | -0.247
18 | chain 1 R329E | -0.367
19 | chain 1 A434L | 0.0211
20 | chain 1 I70A | -0.501
21 | chain 1 G153A | -0.209
22 | chain 1 R113L | 0.128
23 | chain 1 R95L | 0.0463
24 | chain 1 S158E | -0.452
25 | chain 1 L62A | 0.475
26 | chain 1 Q140A | -0.00146
27 | chain 1 N180L | 0.0119
28 | chain 1 G189E | -1
29 | chain 1 V328A | -0.205

Same assay, conditions: with perilipin-1, mouse (mPlin1), transient co-transfection, IgG-coated LUMITRAC plates, 2 h at 4 °C, three PBS washes, Bright-Glo luciferase reagent, triplicates per assay, two …, parent: -0.37, not graded, scale: log2 fold change of co-immunoprecipitated luminescence relative to wild-type ATGL within each experiment

Row | Variant | screen value
30 | chain 1 E368A | -0.602
31 | chain 1 I70K | -0.759
32 | chain 1 G66A | 0.198
33 | chain 1 K275A | -0.709
34 | chain 1 Q140K | 0.00731
35 | chain 1 L159A | 0.395
36 | chain 1 P103K | -0.898
37 | chain 1 R351L | -0.298
38 | chain 1 G153K | -0.772
39 | chain 1 A104E | -0.823
40 | chain 1 E125L | -0.225
41 | chain 1 P86K | -0.498
42 | chain 1 P258L | -1.35
43 | chain 1 G59L | -0.613
44 | chain 1 V127L | -0.288
45 | chain 1 T41A | -0.45
46 | chain 1 E314A | 0.211
47 | chain 1 R329E | -0.537
48 | chain 1 A434L | 0.452
49 | chain 1 I70A | -0.781
50 | chain 1 G153A | -0.215
51 | chain 1 R113L | 0.163
52 | chain 1 R95L | 0.332
53 | chain 1 S158E | -0.376
54 | chain 1 L62A | -0.248
55 | chain 1 Q140A | -0.191
56 | chain 1 N180L | -0.626
57 | chain 1 G189E | -1.43
58 | chain 1 V328A | -0.0406

Variants of: B2
Test: as above
Settings: with CIDEC (FSP27), transient co-transfection, IgG-coated LUMITRAC plates, 2 h at 4 °C, three PBS washes, Bright-Glo luciferase reagent, triplicates per assay, two …, parent: 0.17, not graded, scale: log2 fold change of co-immunoprecipitated luminescence relative to wild-type ATGL within each experiment

Row | Variant | screen value
59 | chain 1 A104E | -0.0649
60 | chain 1 A434L | -0.034
61 | chain 1 A453E | 0.56
62 | chain 1 E125L | -0.231
63 | chain 1 E314A | -0.691
64 | chain 1 E368A | -0.223
65 | chain 1 F35A | 0.00149
66 | chain 1 F35E | 0.312
67 | chain 1 F348E | -0.409
68 | chain 1 G16K | 0.534
69 | chain 1 G59L | 0.339
70 | chain 1 G66A | -0.0355
71 | chain 1 G66L | 0.197
72 | chain 1 G153A | -0.268
73 | chain 1 G153K | -0.57
74 | chain 1 G189E | -0.952
75 | chain 1 H109E | -0.00157
76 | chain 1 I70A | -0.118
77 | chain 1 I70K | -0.434
78 | chain 1 K92L | -0.0227
79 | chain 1 K275A | -0.673
80 | chain 1 L62A | -0.111
81 | chain 1 L62K | -0.0341
82 | chain 1 L102K | -0.128
83 | chain 1 L159A | -0.648
84 | chain 1 L178A | -0.204
85 | chain 1 L261E | -0.713
86 | chain 1 N39E | 0.129
87 | chain 1 N180L | -0.529

Same assay, conditions: with CIDEC (FSP27), transient co-transfection, IgG-coated LUMITRAC plates, 2 h at 4 °C, three PBS washes, Bright-Glo luciferase reagent, triplicates per assay, two …, parent: 0.24, not graded, scale: log2 fold change of co-immunoprecipitated luminescence relative to wild-type ATGL within each experiment

Row | Variant | screen value
88 | chain 1 A104E | -0.317
89 | chain 1 A434L | 0.729
90 | chain 1 A453E | 0.847
91 | chain 1 E125L | -0.238
92 | chain 1 E314A | -0.29
93 | chain 1 E368A | -0.54
94 | chain 1 F35A | -0.0902
95 | chain 1 F35E | 0.00116
96 | chain 1 F348E | -0.389
97 | chain 1 G16K | 0.954
98 | chain 1 G59L | -0.00561
99 | chain 1 G66A | -0.0837
100 | chain 1 G66L | -0.656
101 | chain 1 G153A | 0.00164
102 | chain 1 G153K | -0.174
103 | chain 1 G189E | -0.896
104 | chain 1 H109E | -0.00996
105 | chain 1 I70A | -0.628
106 | chain 1 I70K | -0.623
107 | chain 1 K92L | 0.785
108 | chain 1 K275A | -0.64
109 | chain 1 L62A | -0.17
110 | chain 1 L62K | 0.845
111 | chain 1 L102K | -0.319
112 | chain 1 L159A | 0.00161
113 | chain 1 L178A | -0.645
114 | chain 1 L261E | -0.796
115 | chain 1 N39E | -0.0276
116 | chain 1 N180L | -0.574
